IntAct's records for PubMed 21930971

B1: Complement factor H (Homo sapiens), P08603-2 (parent)
chain: MRLLAKIICLMLWAICVAEDCNELPPRRNTEILTGSWSDQTYPEGTQAIYKCRPGYRSLGNVIMVCRKGEWVALNPLRKCQKRPCGHPGDTPFGTFTLTGGNVFEYGVKAVYTCNEGYQLLGEINYRECDTDGWTNDIPICEVVKCLPVTAPENGKIVSSAMEPDREYHFGQAVRFVCNSGYKIEGDEEMHCSDDGFWSKEKPKCVEISCKSPDVINGSPISQKIIYKENERFQYKCNMGYEYSERGDAVCTESGWRPLPSCEEKSCDNPYIPNGDYSPLRIKHRTGDEITYQCRNGFYPATRGNTAKCTSTGWIPAPRCTLKPCDYPDIKHGGLYHENMRRPYFPVAVGKYYSYYCDEHFETPSGSYWDHIHCTQDGWSPAVPCLRKCYFPYLENGYNQNYGRKFVQGKSIDVACHPGYALPKAQTTVTCMENGWSPTPRCIRVSFTL
partner: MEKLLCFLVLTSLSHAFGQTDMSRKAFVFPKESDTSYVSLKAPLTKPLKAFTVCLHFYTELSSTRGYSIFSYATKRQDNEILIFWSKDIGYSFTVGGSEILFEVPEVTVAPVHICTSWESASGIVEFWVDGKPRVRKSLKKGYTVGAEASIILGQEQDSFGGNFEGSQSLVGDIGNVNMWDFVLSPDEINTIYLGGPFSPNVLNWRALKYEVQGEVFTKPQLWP
B2: Complement factor H (Homo sapiens), P08603-1 (parent)
chain: MRLLAKIICLMLWAICVAEDCNELPPRRNTEILTGSWSDQTYPEGTQAIYKCRPGYRSLGNVIMVCRKGEWVALNPLRKCQKRPCGHPGDTPFGTFTLTGGNVFEYGVKAVYTCNEGYQLLGEINYRECDTDGWTNDIPICEVVKCLPVTAPENGKIVSSAMEPDREYHFGQAVRFVCNSGYKIEGDEEMHCSDDGFWSKEKPKCVEISCKSPDVINGSPISQKIIYKENERFQYKCNMGYEYSERGDAVCTESGWRPLPSCEEKSCDNPYIPNGDYSPLRIKHRTGDEITYQCRNGFYPATRGNTAKCTSTGWIPAPRCTLKPCDYPDIKHGGLYHENMRRPYFPVAVGKYYSYYCDEHFETPSGSYWDHIHCTQDGWSPAVPCLRKCYFPYLENGYNQNYGRKFVQGKSIDVACHPGYALPKAQTTVTCMENGWSPTPRCIRVKTCSKSSIDIENGFISESQYTYALKEKAKYQCKLGYVTADGETSGSITCGKDGWSAQPTCIKSCDIPVFMNARTKNDFTWFKLNDTLDYECHDGYESNTGSTTGSIVCGYNGWSDLPICYERECELPKIDVHLVPDRKKDQYKVGEVLKFSCKPGFTIVGPNSVQCYHFGLSPDLPICKEQVQSCGPPPELLNGNVKEKTKEEYGHSEVVEYYCNPRFLMKGPNKIQCVDGEWTTLPVCIVEESTCGDIPELEHGWAQLSSPPYYYGDSVEFNCSESFTMIGHRSITCIHGVWTQLPQCVAIDKLKKCKSSNLIILEEHLKNKKEFDHNSNIRYRCRGKEGWIHTVCINGRWDPEVNCSMAQIQLCPPPPQIPNSHNMTTTLNYRDGEKVSVLCQENYLIQEGEEITCKDGRWQSIPLCVEKIPCSQPPQIEHGTINSSRSSQESYAHGTKLSYTCEGGFRISEENETTCYMGKWSSPPQCEGLPCKSPPEISHGVVAHMSDSYQYGEEVTYKCFEGFGIDGPAIAKCLGEKWSHPPSCIKTDCLSLPSFENAIPMGEKKDVYKAGEQVTYTCATYYKMDGASNVTCINSRWTGRPTCRDTSCVNPPTVQNAYIVSRQMSKYPSGERVRYQCRSPYEMFGDEEVMCLNGNWTEPPQCKDSTGKCGPPPPIDNGDITSFPLSVYAPASSVEYQCQNLYQLEGNKRITCRNGQWSEPPKCLHPCVISREIMENYNIALRWTAKQKLYSRTGESVEFVCKRGYRLSSRSHTLRTTCWDGKLEYPTCAKR
partner: B1 partner

Variants of: B1
Conditions: with crp_human CRP

Row | effect of a mutation on the interaction | Variant
1 | decreasing interaction strength | Y402H

Variants of: B2
Conditions: with crp_human CRP

Row | effect of a mutation on the interaction | Variant
2 | decreasing interaction strength | Y402H
